To fix the notation:
T1: human CTLA4 expressed on cells (human, UniProt P16410 36-223)
T1 sequence (looked up): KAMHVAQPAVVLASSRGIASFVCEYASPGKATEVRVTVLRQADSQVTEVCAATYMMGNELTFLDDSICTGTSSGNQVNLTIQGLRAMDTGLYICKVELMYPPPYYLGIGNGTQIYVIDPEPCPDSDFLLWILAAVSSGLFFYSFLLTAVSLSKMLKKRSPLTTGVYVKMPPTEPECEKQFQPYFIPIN

T2: Recombinant human CTLA4-hisFc (human, UniProt P16410 36-161, limits assumed)
T2 construct: Coated on the ELISA plate; the whole UniProt entry is named; also called recombinant human CLTA4-hisFc; its antigen; not shown: his tag and Fc
T2 sequence (looked up): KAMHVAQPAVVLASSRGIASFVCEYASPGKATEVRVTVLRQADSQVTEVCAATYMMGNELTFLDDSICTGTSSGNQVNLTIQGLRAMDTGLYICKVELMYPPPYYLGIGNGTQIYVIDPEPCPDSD

B1: TY24040 (antibody, human IgG1, kappa)
heavy: not shown
light: DIQLTQSPSSLSASVGDRVTITCRASQSVRGRFLAWYQQKPGKAPKLLIYDASNRATGIPSRFSGSGSGTDFTLTISSLQPEDFATYYCQQSSSWPPTFGQGTKVEIKRTVAAPSVFIFPPSDEQLKSGTASVVCLLNNFYPREAKVQWKVDNALQSGNSQESVTEQDSKDSTYSLSSTLTLSKADYEKHKVYACEVTHQGLSSPVTKSFNRGEC
B2: TY24649-MMP9 (antibody, human IgG1)
heavy: not shown
light: DIQLTQSPSSLSASVGDRVTITCRASQSVRGRFLAWYQQKPGKAPKLLIYDASNRATGIPSRFSGSGSGTDFTLTISSLQPEDFATYYCQQSSSWPPTFGQGTKVEIKRTVAAPSVFIFPPSDEQLKSGTASVVCLLNNFYPREAKVQWKVDNALQSGNSQESVTEQDSKDSTYSLSSTLTLSKADYEKHKVYACEVTHQGLSSPVTKSFNRGEC
notes: TY24649 after 24 h with MMP-9; Wild-type human IgG1 Fc; also called TY24649 treated with recombinant human MMP-9
B3: TY24466 (antibody, human IgG1, kappa)
heavy: not shown
light: ETLCEPFATSVCRPSGGGPLGLAGGSDIQLTQSPSSLSASVGDRVTITCRASQSVRGRFLAWYQQKPGKAPKLLIYDASNRATGIPSRFSGSGSGTDFTLTISSLQPEDFATYYCQQSSSWPPTFGQGTKVEIKRTVAAPSVFIFPPSDEQLKSGTASVVCLLNNFYPREAKVQWKVDNALQSGNSQESVTEQDSKDSTYSLSSTLTLSKADYEKHKVYACEVTHQGLSSPVTKSFNRGEC
B4: TY24149 (antibody, human IgG1, kappa)
heavy: not shown
light: EVGSYPPCVGFYPYCKTSGRSAGGGGTPLGLAGSGGSDIQLTQSPSSLSASVGDRVTITCRASQSVRGRFLAWYQQKPGKAPKLLIYDASNRATGIPSRFSGSGSGTDFTLTISSLQPEDFATYYCQQSSSWPPTFGQGTKVEIKRTVAAPSVFIFPPSDEQLKSGTASVVCLLNNFYPREAKVQWKVDNALQSGNSQESVTEQDSKDSTYSLSSTLTLSKADYEKHKVYACEVTHQGLSSPVTKSFNRGEC
B5: TY24155 (antibody, human IgG1, kappa)
heavy: not shown
light: EVGSYSSCKAPYPYCKGSGRSAGGGGTPLGLAGSGGSDIQLTQSPSSLSASVGDRVTITCRASQSVRGRFLAWYQQKPGKAPKLLIYDASNRATGIPSRFSGSGSGTDFTLTISSLQPEDFATYYCQQSSSWPPTFGQGTKVEIKRTVAAPSVFIFPPSDEQLKSGTASVVCLLNNFYPREAKVQWKVDNALQSGNSQESVTEQDSKDSTYSLSSTLTLSKADYEKHKVYACEVTHQGLSSPVTKSFNRGEC
B6: TY24460 (antibody, human IgG1, kappa)
heavy: not shown
light: EVGSYSSCKAPYPYCKGSGGGPLGLAGGSDIQLTQSPSSLSASVGDRVTITCRASQSVRGRFLAWYQQKPGKAPKLLIYDASNRATGIPSRFSGSGSGTDFTLTISSLQPEDFATYYCQQSSSWPPTFGQGTKVEIKRTVAAPSVFIFPPSDEQLKSGTASVVCLLNNFYPREAKVQWKVDNALQSGNSQESVTEQDSKDSTYSLSSTLTLSKADYEKHKVYACEVTHQGLSSPVTKSFNRGEC
B7: TY24465 (antibody, human IgG1, kappa)
heavy: not shown
light: EVGSYTLCEPFATSVCRPGGGPLGLAGGSDIQLTQSPSSLSASVGDRVTITCRASQSVRGRFLAWYQQKPGKAPKLLIYDASNRATGIPSRFSGSGSGTDFTLTISSLQPEDFATYYCQQSSSWPPTFGQGTKVEIKRTVAAPSVFIFPPSDEQLKSGTASVVCLLNNFYPREAKVQWKVDNALQSGNSQESVTEQDSKDSTYSLSSTLTLSKADYEKHKVYACEVTHQGLSSPVTKSFNRGEC
B8: TY24459 (antibody, human IgG1, kappa)
heavy: not shown
light: EVGSYSSCKAPYPYCKGSGRGPLGLAGGSDIQLTQSPSSLSASVGDRVTITCRASQSVRGRFLAWYQQKPGKAPKLLIYDASNRATGIPSRFSGSGSGTDFTLTISSLQPEDFATYYCQQSSSWPPTFGQGTKVEIKRTVAAPSVFIFPPSDEQLKSGTASVVCLLNNFYPREAKVQWKVDNALQSGNSQESVTEQDSKDSTYSLSSTLTLSKADYEKHKVYACEVTHQGLSSPVTKSFNRGEC
B9: TY24461 (antibody, human IgG1, kappa)
heavy: not shown
light: EVGSYSSCKAPYPYCKGGGGPLGLAGGSDIQLTQSPSSLSASVGDRVTITCRASQSVRGRFLAWYQQKPGKAPKLLIYDASNRATGIPSRFSGSGSGTDFTLTISSLQPEDFATYYCQQSSSWPPTFGQGTKVEIKRTVAAPSVFIFPPSDEQLKSGTASVVCLLNNFYPREAKVQWKVDNALQSGNSQESVTEQDSKDSTYSLSSTLTLSKADYEKHKVYACEVTHQGLSSPVTKSFNRGEC
B10: TY24148 (antibody, human IgG1, kappa)
heavy: not shown
light: EVGSYVLCAKFPFCITSGRSAGGGGTPLGLAGSGGSDIQLTQSPSSLSASVGDRVTITCRASQSVRGRFLAWYQQKPGKAPKLLIYDASNRATGIPSRFSGSGSGTDFTLTISSLQPEDFATYYCQQSSSWPPTFGQGTKVEIKRTVAAPSVFIFPPSDEQLKSGTASVVCLLNNFYPREAKVQWKVDNALQSGNSQESVTEQDSKDSTYSLSSTLTLSKADYEKHKVYACEVTHQGLSSPVTKSFNRGEC
B11: TY24462 (antibody, human IgG1, kappa)
heavy: not shown
light: ESSCKAPYPYCKGSGGGPLGLAGGSDIQLTQSPSSLSASVGDRVTITCRASQSVRGRFLAWYQQKPGKAPKLLIYDASNRATGIPSRFSGSGSGTDFTLTISSLQPEDFATYYCQQSSSWPPTFGQGTKVEIKRTVAAPSVFIFPPSDEQLKSGTASVVCLLNNFYPREAKVQWKVDNALQSGNSQESVTEQDSKDSTYSLSSTLTLSKADYEKHKVYACEVTHQGLSSPVTKSFNRGEC
B12: TY24851 (antibody, IgG1, V domains shown)
VH: EVQLVESGGGLVQPGGSLRLSCAASGYSISSGYHWSWIRQAPGKGLEWLARIDWDDDKYYSTSLKSRLTISRDNSKNTLYLQLNSLRAEDTAVYYCARSYVYFDYWGQGTLVTVSS
VL: ETLCEPFATSVCRPGGGGSGGSGGGSDIQLTQSPSSLSASVGDRVTITCRASQSVRGRFLAWYQQKPGKAPKLLIYDASNRATGIPSRFSGSGSGTDFTLTISSLQPEDFATYYCQQSSSWPPTFGQGTKVEIKR
notes: also called non-cleavable antibody TY24851
B13: TY24841 (antibody, V domains shown)
VH: EVQLVESGGGLVQPGGSLRLSCAASGYSISSGYHWSWIRQAPGKGLEWLARIDWDDDKYYSTSLKSRLTISRDNSKNTLYLQLNSLRAEDTAVYYCARSYVYFDYWGQGTLVTVSS
VL: ETLCEPFATSVCRPGGGGSGGSGGGSDIQLTQSPSSLSASVGDRVTITCRASQSVRGRFLAWYQQKPGKAPKLLIYDASNRATGIPSRFSGSGSGTDFTLTISSLQPEDFATYYCQQSSSWPPTFGQGTKVEIKR
B14: TY24463 (antibody, human IgG1, kappa)
heavy: not shown
light: EVGSYTLCEPFATSVCRPSGRGPLGLAGGSDIQLTQSPSSLSASVGDRVTITCRASQSVRGRFLAWYQQKPGKAPKLLIYDASNRATGIPSRFSGSGSGTDFTLTISSLQPEDFATYYCQQSSSWPPTFGQGTKVEIKRTVAAPSVFIFPPSDEQLKSGTASVVCLLNNFYPREAKVQWKVDNALQSGNSQESVTEQDSKDSTYSLSSTLTLSKADYEKHKVYACEVTHQGLSSPVTKSFNRGEC
B15: TY24464 (antibody, human IgG1, kappa)
heavy: not shown
light: EVGSYTLCEPFATSVCRPSGGGPLGLAGGSDIQLTQSPSSLSASVGDRVTITCRASQSVRGRFLAWYQQKPGKAPKLLIYDASNRATGIPSRFSGSGSGTDFTLTISSLQPEDFATYYCQQSSSWPPTFGQGTKVEIKRTVAAPSVFIFPPSDEQLKSGTASVVCLLNNFYPREAKVQWKVDNALQSGNSQESVTEQDSKDSTYSLSSTLTLSKADYEKHKVYACEVTHQGLSSPVTKSFNRGEC

“And” between values parts separate entries of the source, which are not always exact repeats. Identical values can stand only once.

The first assay concerns the target T1, human CTLA4 expressed on cells. Description: cell-based or functional assay.
Consider B1, for which the “ADCP reporter activity (luciferase), EC50” value was 2.04 nM.

Another assay addresses T2, Recombinant human CTLA4-hisFc. Description: ELISA, coated CTLA4-hisFc, after MMP-9 cleavage. As to the method: Plates were blocked with PBS supplemented with 3% non-fat milk at 37° C. for 1 hour. After washing, 100 µL of 3-fold serial dilutions of antibodies were added to each well. After incubation at 37° C. for 1 hour, plates were washed four times, and 100 μL HRP conjugated anti-human IgG (Fab specific) (1:6000 dilution) was added to each well. Plates were incubated at 37° C. for 1 hour, washed four times, and then 50 μL TMB substrate solution was added to each well, and the plate was incubated at room temperature. Absorbance at 450 nm was measured after the reactions were stopped with 50 μL H2SO4 per well. The EC50 was evaluated by fitting the ELISA data using the sigmoidal (four-parameter logistic equation) model of GraphPad Prism 6 software. Experiments for some activatable antibodies were performed twice or more, leading to two or more calculated masking efficiencies being obtained for each of these activatable antibodies.
The purified activatable antibodies were treated with the proteases which recognize the cleavage sequences, and were then tested to determine whether removal of the masking peptide restored their activity. […] The reactions were carried out at 37° C. for 24 hours. […] The masking efficiency was then measured by ELISA as described above.
B2: the concentration giving a half-maximal response (EC50) was 0.286 nM.

Another assay has the same target. Kind of assay: ELISA, coated CTLA4-hisFc. As to the method:
Recombinant human CTLA4-hisFc was diluted to 1 μg/mL in PBS and coated on a Maxisorp plate at 4° C. overnight. Plates were blocked with PBS supplemented with 3% non-fat milk at 37° C. for 1 hour. After washing, 100 µL of 3-fold serial dilutions of antibodies were added to each well. After incubation at 37° C. for 1 hour, plates were washed four times, and 100 μL HRP conjugated anti-human IgG (Fab specific) (1:6000 dilution) was added to each well. Plates were incubated at 37° C. for 1 hour, washed four times, and then 50 μL TMB substrate solution was added to each well, and the plate was incubated at room temperature. Absorbance at 450 nm was measured after the reactions were stopped with 50 μL H2SO4 per well. The EC50 was evaluated by fitting the ELISA data using the sigmoidal (four-parameter logistic equation) model of GraphPad Prism 6 software. Experiments for some activatable antibodies were performed twice or more, leading to two or more calculated masking efficiencies being obtained for each of these activatable antibodies.
Consider B3, for which the EC50 is 3.17 µM (2×) and 2.23 µM (2×).

As to B4, the EC50 is 123 nM and 122 nM; the “Masking efficiency (EC50 / EC50 of TY21580)” value was found to be 356 fold.

On to B5, for which the EC50 was 438 nM (2×) and 210 nM (2×).

Take B6: the EC50 was determined as 339 nM.

Consider B7, for which the EC50 was 2.33 µM (2×) and 1.2 µM (2×).

In the case of B8, the EC50 came out at 209 nM.

For the molecule B9, the EC50 is 310 nM.

As to B10, the EC50 was 150 nM and the “Masking efficiency (EC50 / EC50 of TY21580)” value is 436 fold.

For the molecule B11, the concentration giving a half-maximal response (EC50) came to 314 nM.

Consider B12, for which the EC50 was determined as 25.8 nM.

Turning to B13, the EC50 is 34.9 nM.

In the case of B14, the EC50 was found to be 996 nM.

B15: the EC50 was determined as 2140 nM.

The EC50 is the concentration needed to bring the measured effect to its halfway point.

(Values after patent US20260258131A1 (ADAGENE PTE, published 2026).)
